This is an account of results in patent US20260166140A1, “Combinations Involving Epidermal Growth Factor Receptor Tyrosine Kinase Inhibitors For the Treatment of Cancer” (AstraZeneca AB, priority 2022, published 2026).

Residue numbers refer to the chain shown, from its start.

In experiment [1] the target is T1, HER2 (UniProt P04626 23-652, limits assumed).
T1 construct: also called EGFR HER family protein HER2
Kind of experiment: ELISA: antigen coated at 1 ug/mL, antibody dilution series, goat anti-human Fab-HRP, A450; panel Human HER2.

The target in experiment [2] is Human cMET (Homo sapiens, UniProt P08581). Put plainly: SPR (BIAcore T200) antibody capture kinetics. In kind it is binding. Particulars: for Koff / Kon: 25° C. As to the method:
(§1) Mouse anti-human IgG was immobilized on a CM4 sensor chip with a final surface density of ˜2000 resonance units (RUs). A reference flow cell surface was also prepared on this sensor chip using identical immobilization protocol. Test and control article antibodies were prepared at 5-20 nM in instrument buffer (HBS-EP buffer; 0.01M HEPES, pH 7.4, 0.15M NaCl, 3 mM EDTA, and 0.005% P-20), along with 3-fold serial dilutions of purified EGFR (0.27-200 nM human, 0.4-900 nM cyno, and 4-1000 nM murine) or cMET proteins (0.27 to 66 nM human and 0.27-22 nM cyno) in instrument buffer. A sequential approach was utilized for kinetic measurements. Antibodies were first injected over the capture surface, at a flow rate of 10 μL/minute. Once the binding of the captured antibody stabilized, a single concentration of the analyte was injected over both capture and reference surfaces, at a flow rate of 75 μL/minute. The resulting binding response curves yielded the association phase data. Following the injection of analyte, the flow was then switched back to instrument buffer for 15 minutes to permit the collection of dissociation phase data, followed by a 1-minute pulse of 10 mM glycine, pH 1.5, to regenerate the antibody-captured surface on the chip. Binding responses against test and control article antibodies were recorded from duplicate injections of each concentration of analyte. In addition, several buffer injections were interspersed throughout the injection series. Select buffer injections were used along with the reference cell responses to correct the raw data sets for injection artifacts and/or nonspecific binding interactions, commonly referred to as “double referencing”. Corrected binding data were globally fit to a 1:1 binding model (Biacore T200 Evaluation software 2.0, GE Healthcare, Pittsburgh, PA).
(In general: Surface plasmon resonance follows binding to a sensor surface in real time, without labels.)

Experiment [3] concerns the target T2, Human EGFR (Homo sapiens, UniProt P00533). Put plainly: SPR (BIAcore T200) antibody capture kinetics. The class given is binding. The conditions noted are these: for Koff / Kon: 25° C.; for Kon: 1:1 binding model. As to the method: as §1
Experiment [4] concerns Cynomolgus monkey EGFR. Put plainly: SPR (BIAcore T200) antibody capture kinetics. In kind it is binding. The conditions noted are these: 25° C. As to the method:
as §1

In experiment [5] the test system is Cynomolgus monkey cMET. Kind of experiment: SPR (BIAcore T200) antibody capture kinetics. In kind it is binding. The conditions noted are these: 25° C. As to the method:
as §1

For experiment [6], the target named is T3, Mouse EGFR (Mus musculus, UniProt Q01279).
T3 construct: purchased SinoBiological 51091-M08H
Put plainly: SPR (BIAcore T200) antibody capture kinetics. In kind it is binding. Particulars: for Koff / Kon: 25° C. As to the method:
as §1

Experiment [7] concerns the target T2, Human EGFR. Kind of experiment: ELISA species cross reactivity. The class given is binding. The conditions noted are these: antibody 10 to 0.002 μg/mL. As to the method: (§2) Specificity for EGFR and cMET species paralogs and closely related family members was determined by ELISA. Briefly, antigen solutions were prepared in PBS at 1 μg/mL and 50 microliters was coated onto half area ELISA assay plates. Plates were washed and blocked with 1% BSA in PBS containing 0.005% Tween-20 (PBS-T) for one hour at room temperature. The wells were washed 4 times in PBS-T. As set out in FIG. 3, the primary antibodies used where: R374 (a non-binding IgG1 isotype control antibody), B09 (anti-cMET antibody), QD6 (anti-EGFR antibody), RAA22 (anti-EGFR antibody), QD6/B09 (bispecific EGFR/c-MET DuetMAb), RAA22/B09 (bispecific EGFR/c-MET DuetMAb), PaniX (anti-EGFR antibody), MetMab (anti-cMET antibody) and Mab11311 (anti-HER4 antibody). Wells were incubated with 50 microliters of the indicated primary antibodies diluted in PBS-T in a 1:3 dilution series, starting at 10 μg/mL and ending at 0.002 μg/mL, except for the HER4 binding mAb control, MAB1131, for which the series started at 1 μg/mL. The wells were washed 4 times in PBS-T, then 50 μl of goat anti-human Fab HRP-labeled secondary antibody, diluted 1:5000 in PBS-T, was added to each well and incubated for one hour at room temperature. […] 50 microliters of TMB stop solution was added to all wells and the absorbance was read at 450 nm on a SpectraMax M5 microplate reader. Data were analyzed in the SoftMax Pro 5 software and plotted using GraphPad Prism 7 graphing software.
(§3) To determine the species cross reactivity, ELISA assays were carried out as described above. […] There was no detectable binding of any of the antibodies to mouse cMET.
A general note: ELISA stands for enzyme-linked immunosorbent assay.

Experiment [8] deals with Cynomolgus monkey EGFR. Put plainly: ELISA species cross reactivity. In kind it is binding. As to the method:
as §2, §3

In experiment [9] the target is T3, Mouse EGFR. Put plainly: ELISA species cross reactivity. The class given is binding. As to the method: as §2, §3
The target in experiment [10] is T4, HER3 (UniProt P21860 20-643, limits assumed).
T4 construct: also called EGFR HER family protein HER3
Kind of experiment: ELISA: antigen coated at 1 ug/mL, antibody dilution series, goat anti-human Fab-HRP, A450; panel Human HER3.

Sequence of Human cMET (P08581 25-932): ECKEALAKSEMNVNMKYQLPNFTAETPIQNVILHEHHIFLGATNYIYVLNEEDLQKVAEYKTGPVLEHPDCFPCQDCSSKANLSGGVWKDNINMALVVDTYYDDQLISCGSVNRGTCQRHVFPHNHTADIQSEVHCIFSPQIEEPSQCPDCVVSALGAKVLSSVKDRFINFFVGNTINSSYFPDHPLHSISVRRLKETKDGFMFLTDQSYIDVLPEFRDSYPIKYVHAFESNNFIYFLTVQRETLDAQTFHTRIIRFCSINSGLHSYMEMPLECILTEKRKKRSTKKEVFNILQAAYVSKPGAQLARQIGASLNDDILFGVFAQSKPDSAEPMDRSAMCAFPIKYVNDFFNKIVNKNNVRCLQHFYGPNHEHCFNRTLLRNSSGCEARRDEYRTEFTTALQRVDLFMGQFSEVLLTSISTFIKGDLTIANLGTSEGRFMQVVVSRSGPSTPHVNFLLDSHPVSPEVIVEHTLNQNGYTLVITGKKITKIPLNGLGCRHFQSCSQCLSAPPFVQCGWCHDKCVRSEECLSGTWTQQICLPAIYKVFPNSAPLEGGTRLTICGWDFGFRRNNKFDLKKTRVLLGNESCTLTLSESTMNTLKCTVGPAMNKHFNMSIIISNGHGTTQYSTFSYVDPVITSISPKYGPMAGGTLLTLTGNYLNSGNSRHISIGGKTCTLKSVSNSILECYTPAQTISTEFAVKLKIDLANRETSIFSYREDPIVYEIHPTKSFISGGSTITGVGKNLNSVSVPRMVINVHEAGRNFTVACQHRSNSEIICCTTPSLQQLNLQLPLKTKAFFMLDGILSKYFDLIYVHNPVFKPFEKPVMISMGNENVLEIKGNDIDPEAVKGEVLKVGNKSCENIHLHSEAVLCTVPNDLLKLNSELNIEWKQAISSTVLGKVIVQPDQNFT
Sequence of Cynomolgus monkey cMET (as listed by the source): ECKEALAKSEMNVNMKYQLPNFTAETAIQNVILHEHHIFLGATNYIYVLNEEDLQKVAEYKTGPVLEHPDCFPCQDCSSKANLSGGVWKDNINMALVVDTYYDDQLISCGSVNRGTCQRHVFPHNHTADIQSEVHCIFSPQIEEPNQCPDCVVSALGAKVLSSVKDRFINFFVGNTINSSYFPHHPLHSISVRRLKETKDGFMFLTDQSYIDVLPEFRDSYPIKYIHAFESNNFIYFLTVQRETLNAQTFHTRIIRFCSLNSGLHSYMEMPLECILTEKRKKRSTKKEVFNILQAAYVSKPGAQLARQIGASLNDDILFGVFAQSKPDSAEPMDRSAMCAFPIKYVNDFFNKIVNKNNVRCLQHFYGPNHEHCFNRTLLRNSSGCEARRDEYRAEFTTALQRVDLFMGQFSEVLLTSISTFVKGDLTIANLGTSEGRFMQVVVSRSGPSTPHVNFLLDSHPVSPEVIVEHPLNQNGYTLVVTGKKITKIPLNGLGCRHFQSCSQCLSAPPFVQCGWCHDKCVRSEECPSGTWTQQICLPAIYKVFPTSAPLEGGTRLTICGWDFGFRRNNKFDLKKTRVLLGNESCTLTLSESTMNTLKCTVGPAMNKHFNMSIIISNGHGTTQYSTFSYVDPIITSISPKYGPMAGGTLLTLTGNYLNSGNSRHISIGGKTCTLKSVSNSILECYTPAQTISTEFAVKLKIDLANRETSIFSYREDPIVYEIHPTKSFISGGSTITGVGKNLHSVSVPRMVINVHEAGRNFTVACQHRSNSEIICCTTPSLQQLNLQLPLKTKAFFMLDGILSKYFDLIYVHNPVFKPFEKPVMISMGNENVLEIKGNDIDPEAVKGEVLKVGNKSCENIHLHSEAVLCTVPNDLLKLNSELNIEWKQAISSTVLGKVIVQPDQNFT

B1: RAA22/B09-57 DuetMab (bispecific antibody, human IgG1, kappa, lambda)
heavy 1: QVQLVQSGAEVKKPGSSVKVSCKASGGTFSDNDFSWVRQAPGQGLEWMGAIVAVFRTETYAQKFQDRVKITADISTRTTYMELSSLRSEDTAVYYCARRLMSAISGPGAPLLMWGQGTLVTVSSASTKGPSVFPLAPSSKSTSGGTAALGCLVKDYFPEPVTVSWNSGALTSGVHTFPAVLQSSGLYSLSSVVTVPSSSLGTQTYICNVNHKPSNTKVDKRVEPKSCDKTHTCPPCPAPELLGGPSCVFLFPPKPKDTLMISRTPEVTCVVVDVSHEDPEVKFNWYVDGVEVHNAKTKPREEQYNSTYRVVSVLTVLHQDWLNGKEYKCKVSNKALPAPIEKTISKAKGQPREPQVCTLPPSREEMTKNQVSLSCAVKGFYPSDIAVEWESNGQPENNYKTTPPVLDSDGSFFLVSKLTVDKSRWQQGNVFSCSVMHEALHNHYTQKSLSLSPGK
heavy 2: QVQLVQSGAEVKKPGASVKVSCKASGYTFTDYYIHWVRQATGQGLEWMGWMNPNSGNTGYAQKFQGRVTMTRDTSISTAYMELSSLRSEDTAVYYCARGQGYTHSWGQGTMVTVSSASTKGPSVCPLAPSSKSTSGGTAALGCLVKDYFPEPVTVSWNSGALTSGVHTFPAVLQSSGLYSLSSVVTVPSSSLGTQTYICNVNHKPSNTKVDKRVEPKSVDKTHTCPPCPAPELLGGPSCVFLFPPKPKDTLMISRTPEVTCVVVDVSHEDPEVKFNWYVDGVEVHNAKTKPREEQYNSTYRVVSVLTVLHQDWLNGKEYKCKVSNKALPAPIEKTISKAKGQPREPQVYTLPPCREEMTKNQVSLWCLVKGFYPSDIAVEWESNGQPENNYKTTPPVLDSDGSFFLYSKLTVDKSRWQQGNVFSCSVMHEALHNHYTQKSLSLSPG
light 1: QSALTQPRSVSGSPGQSVTISCTGTSSDVGGYNYVSWYQQHPGKAPKLMIYDVSKRPSGVPDRFSGSKSGNTASLTISGLQAEDEADYYCSSYTSSDTLEIFGGGTKLTVLGQPKAAPSVTLFPPSSEELQANKATLVCLISDFYPGAVTVAWKADSSPVKAGVETTTPSKQSNNKYAASSYLSLTPEQWKSHRSYSCQVTHEGSTVEKTVAPTECS
light 2: DIQMTQSPSTLSASVGDRVTITCRASEGIYHWLAWYQQKPGKAPKLLIYKASSLASGVPSRFSGSGSGTEFTLTISSLQPDDFATYYCQQYSNYPPTFGGGTKLEIKRTVAAPSVFIFPPCDEQLKSGTASVVCLLNNFYPREAKVQWKVDNALQSGNSQESVTEQDSKDSTYSLSSTLTLSKADYEKHKVYACEVTHQGLSSPVTKSFNRGEV
notes: also called monovalent bispecific EGFR/cMET DuetMAb RAA22/B09; RAA22/B09-Maia
Usually Kd stands for the equilibrium constant for the complex coming apart. Consider B1, for which the binding result in [1] and in experiment [10] was “no binding (tested: 10 ug/ml)” in each case. In addition, the Koff is 0.000986 s⁻¹ in [2]; 0.00201 s⁻¹ in experiment [3]; 0.00548 s⁻¹ in experiment [4]; 0.00212 s⁻¹ in [5]; 0.0206 s⁻¹ in experiment [6]. The Kon stood at 443000 M⁻¹ s⁻¹ in experiment [2]; 44700 M⁻¹ s⁻¹ in experiment [3]; 27800 M⁻¹ s⁻¹ in experiment [4]; 974000 M⁻¹ s⁻¹ in [5]; 35400 M⁻¹ s⁻¹ in experiment [6]. The dissociation constant (Kd) in experiment [2] (koff/kon) was around 2 nM. Also, the ELISA binding result is reported as “still weaker binding” in [7], “still weaker binding” in experiment [8] and “nominal binding” in [9].

B2: QD6/B09-57 DuetMab (bispecific antibody, human IgG1, kappa, lambda)
heavy 1: B1 heavy 1 with F55V
heavy 2: B1 heavy 2
light 1: B1 light 1 with K55E, S91F
light 2: B1 light 2
notes: also called monovalent bispecific EGFR/cMET DuetMAb QD6/B09
As to B2, the binding result in experiment [1] and in experiment [10] was “no binding (tested: 10 ug/ml)” in each case. Further, the Koff in [2] is 0.000696 s⁻¹; in [3], 0.000374 s⁻¹; in experiment [4] it was 0.000585 s⁻¹; in [5], 0.00206 s⁻¹; in experiment [6], 0.00078 s⁻¹. Besides, the Kon turned out to be 425000 M⁻¹ s⁻¹ in experiment [2]; 63500 M⁻¹ s⁻¹ in experiment [3]; 210000 M⁻¹ s⁻¹ in [4]; 958000 M⁻¹ s⁻¹ in experiment [5]; 126000 M⁻¹ s⁻¹ in experiment [6]. The equilibrium dissociation constant (Kd) in experiment [3] (KD calculated as koff/kon) and in [6] (koff/kon) was around 6 nM throughout. The ELISA binding result in [7], in [8] and in experiment [9] was “gave robust signals” throughout.
